Test system: peptide library, one residue held at a place counted from the S/T acceptor
Assay: relative phosphorylation of the sub-library (ratio to the mean residue at this position); higher = residue favoured
In short: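 Purified recombinant kinases were reacted in 384-well plates with biotinylated degenerate peptide sub-libraries, each having one residue fixed at one position around a central Ser/Thr. The reaction mix contained 50 μM peptide plus 50 μM ATP spiked with γ-32P-ATP and ran for 90 min under kinase-specific conditions. Relative sub-library phosphorylation, taken from densitometry of phosphorimaged streptavidin membrane spots, is a ratio to the mean residue at that position.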

Chain of TBK1, construct: Full length, human (Q9UHD2 whole entry, looked up): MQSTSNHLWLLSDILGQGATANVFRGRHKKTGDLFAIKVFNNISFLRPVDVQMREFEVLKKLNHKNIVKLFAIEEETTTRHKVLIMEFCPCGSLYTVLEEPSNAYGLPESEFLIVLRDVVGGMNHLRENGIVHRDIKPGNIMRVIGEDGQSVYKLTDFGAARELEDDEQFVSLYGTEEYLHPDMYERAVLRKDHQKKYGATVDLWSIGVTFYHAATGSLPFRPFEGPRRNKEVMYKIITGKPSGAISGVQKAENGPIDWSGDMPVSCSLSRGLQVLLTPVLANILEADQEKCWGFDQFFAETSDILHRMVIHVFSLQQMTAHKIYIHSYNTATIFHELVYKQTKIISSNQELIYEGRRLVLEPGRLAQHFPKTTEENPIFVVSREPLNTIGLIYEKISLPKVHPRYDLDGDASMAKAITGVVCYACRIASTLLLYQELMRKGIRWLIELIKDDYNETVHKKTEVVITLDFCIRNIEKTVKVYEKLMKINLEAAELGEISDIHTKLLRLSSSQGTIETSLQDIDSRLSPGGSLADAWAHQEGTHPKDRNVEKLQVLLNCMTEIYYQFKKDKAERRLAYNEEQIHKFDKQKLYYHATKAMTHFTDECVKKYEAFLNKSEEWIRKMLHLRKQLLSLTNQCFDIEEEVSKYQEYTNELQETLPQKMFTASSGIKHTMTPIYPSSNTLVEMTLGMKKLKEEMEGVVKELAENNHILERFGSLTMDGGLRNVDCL
Chain of STK38L, construct: Full length, human (Q9Y2H1 whole entry, looked up): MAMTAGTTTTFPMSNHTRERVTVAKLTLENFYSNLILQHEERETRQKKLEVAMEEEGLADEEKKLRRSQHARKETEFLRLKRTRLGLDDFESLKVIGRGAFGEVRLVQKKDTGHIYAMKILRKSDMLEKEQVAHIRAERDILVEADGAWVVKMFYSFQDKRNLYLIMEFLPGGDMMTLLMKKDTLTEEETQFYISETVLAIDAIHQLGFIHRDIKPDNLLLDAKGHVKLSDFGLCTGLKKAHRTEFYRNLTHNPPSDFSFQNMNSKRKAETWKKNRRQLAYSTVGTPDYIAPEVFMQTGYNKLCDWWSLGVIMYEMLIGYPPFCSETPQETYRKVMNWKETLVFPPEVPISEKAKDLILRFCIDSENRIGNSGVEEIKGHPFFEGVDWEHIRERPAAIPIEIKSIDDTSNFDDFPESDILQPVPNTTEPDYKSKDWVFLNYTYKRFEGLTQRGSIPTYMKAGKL

STK38L, construct: Full length, human (from UniProt Q9Y2H1)
relative phosphorylation
Settings | at +1 | at +2 | at +3 | at +4 | at -1 | at -2 | at -3 | at -4 | at -5
A fixed | 0.661 | 1.19 | 0.645 | 0.811 | 0.671 | 0.847 | 0.656 | 1.03 | 0.951
D fixed | 1.16 | 2.27 | 1.07 | 1.33 | 0.872 | 0.675 | 0.648 | 0.889 | 0.79
E fixed | 1.1 | 0.721 | 0.987 | 1.21 | 0.636 | 0.712 | 0.554 | 0.812 | 0.582
F fixed | 0.851 | 0.661 | 1.04 | 1.1 | 0.477 | 0.747 | 0.435 | 0.654 | 0.538
G fixed | 1.38 | 2.25 | 1.6 | 1.15 | 1.68 | 1.2 | 0.833 | 1.39 | 0.971
H fixed | 0.83 | 2.05 | 1.22 | 1.11 | 0.979 | 1.6 | 1.18 | 1.26 | 4.33
I fixed | 0.832 | 0.568 | 0.826 | 0.711 | 0.238 | 0.265 | 0.23 | 0.403 | 0.345
K fixed | 0.847 | 0.396 | 0.865 | 0.812 | 1.9 | 2.07 | 2.1 | 1.55 | 1.65
L fixed | 0.804 | 0.421 | 0.788 | 0.856 | 0.619 | 0.315 | 0.243 | 0.481 | 0.433
M fixed | 1.48 | 0.406 | 0.843 | 1.01 | 0.768 | 0.487 | 0.399 | 0.849 | 0.508
N fixed | 1.61 | 1.09 | 1.22 | 1.24 | 1.43 | 1.53 | 1.03 | 0.989 | 0.792
P fixed | 0.532 | 0.81 | 1.27 | 1.24 | 2.64 | 1.45 | 1.94 | 1.89 | 0.701
Q fixed | 1.36 | 1.1 | 0.932 | 1.15 | 1.37 | 1.18 | 0.827 | 0.982 | 0.629
R fixed | 0.577 | 0.391 | 0.59 | 0.588 | 1 | 1.9 | 4.36 | 1.63 | 1.7
V fixed | 0.919 | 0.854 | 0.668 | 0.686 | 0.372 | 0.358 | 0.324 | 0.423 | 0.457
W fixed | 1.09 | 0.958 | 1.39 | 0.955 | 0.545 | 1.01 | 0.598 | 0.942 | 0.884
Y fixed | 0.961 | 0.856 | 1.04 | 1.05 | 0.799 | 0.64 | 0.657 | 0.829 | 0.741
pThr fixed | 1.29 | 0.941 | 0.91 | 1.61 | 0.457 | 0.842 | 0.692 | 0.698 | 0.46
pTyr fixed | 1.26 | 1.04 | 0.87 | 1.05 | 0.76 | 0.814 | 0.914 | 0.895 | 0.672

TBK1, construct: Full length, human (from UniProt Q9UHD2)
relative phosphorylation
Settings | at +1 | at +2 | at +3 | at +4 | at -1 | at -2 | at -3 | at -4 | at -5
A fixed | 0.37 | 1.01 | 0.9 | 0.857 | 1.09 | 0.967 | 1.04 | 1.04 | 1.06
D fixed | 0.296 | 0.857 | 0.879 | 0.864 | 0.882 | 1.15 | 1.27 | 1.29 | 1.16
E fixed | 0.214 | 0.903 | 0.869 | 0.945 | 0.855 | 1.06 | 1.32 | 1.13 | 1.18
F fixed | 1.85 | 1.22 | 1.31 | 1.23 | 0.885 | 1.33 | 0.781 | 0.789 | 0.923
G fixed | 0.548 | 0.851 | 0.974 | 0.897 | 0.814 | 1.12 | 1.56 | 1.19 | 1.19
H fixed | 0.557 | 1.09 | 1.16 | 1.05 | 1.11 | 1.06 | 1.08 | 1.04 | 1.21
I fixed | 2.31 | 1.23 | 0.75 | 1.12 | 0.853 | 0.589 | 0.68 | 0.789 | 0.771
K fixed | 0.249 | 0.616 | 0.555 | 0.768 | 1.13 | 0.613 | 0.985 | 1.07 | 1.19
L fixed | 3.03 | 1.22 | 1.04 | 1.09 | 1.06 | 0.864 | 0.568 | 0.903 | 0.805
M fixed | 2.85 | 1.27 | 1.1 | 1.14 | 1.29 | 1.16 | 0.928 | 0.998 | 0.8
N fixed | 0.349 | 1.02 | 0.962 | 0.876 | 0.957 | 0.883 | 1.09 | 1.2 | 1.09
P fixed | 0.178 | 0.765 | 1.16 | 1.04 | 1.26 | 1.83 | 1.24 | 1.08 | 0.981
Q fixed | 0.333 | 1.06 | 0.884 | 0.921 | 1.05 | 0.928 | 1.24 | 1.03 | 1.03
R fixed | 0.255 | 0.858 | 0.602 | 0.743 | 1.05 | 0.666 | 1 | 0.997 | 1.12
V fixed | 0.957 | 1.3 | 0.974 | 0.889 | 0.834 | 0.658 | 0.7 | 0.721 | 0.784
W fixed | 1.41 | 0.804 | 1.33 | 1.36 | 0.75 | 0.748 | 0.711 | 0.877 | 0.857
Y fixed | 1.24 | 0.931 | 1.54 | 1.22 | 1.12 | 1.39 | 0.812 | 0.861 | 0.859
pThr fixed | 0.465 | 0.783 | 0.625 | 0.849 | 0.582 | 0.817 | 1.14 | 1.01 | 1.06
pTyr fixed | 0.494 | 0.785 | 0.848 | 0.779 | 1.07 | 1.46 | 1.32 | 1.03 | 1.11
